Results taken from paper PMC2970701 (DNA repair, 2010).

Target: S. cerevisiae ubiquitin (S. cerevisiae, UniProt P0CG63 1-76)
Assay: NMR titration

Chain of S. cerevisiae ubiquitin (P0CG63 1-76): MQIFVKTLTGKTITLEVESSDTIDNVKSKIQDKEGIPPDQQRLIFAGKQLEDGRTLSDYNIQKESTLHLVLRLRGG

- binding result: binds
B1: UBZ domain of S. cerevisiae polymerase η (domain or fragment)
chain: TTSSKADEKTPKLECCKYQVTFTDQKALQEHADYHLALKLSEGLNGAEESSKNLSFGEKRLLF
